Laboratory results as given in the DeepSol protein solubility set.

Test: soluble on expression in E. coli; label from the status in PepcDB or PDB records

Sequence	soluble on expression in E. coli
MLFHRKIKVPDCVFKAEKRVLHVSDTPVSFYRTFDEILNLIKPDIIIHTGDLADDIKLERKPWLKKEYENALIKFKNIIRGRIVYLVPGNEDDKEIIREILGRDVILVNPGTIIEIYGRTFALGHKPEDVKGKEAEFKLYGHDPKSLFPFNGIHAIHIILFPEWKVVKIRYPSWVNYDRGYRIFRGLLEHHHHHH	not soluble
GSSGSSGMQAGKPILYSYFRSSCSWRVRIALALKGIDYEIVPINLIKDGGQQFTEEFQTLNPMKQVPALKIDGITIVQSLAIMEYLEETRPIPRLLPQDPQKRAIVRMISDLIASGIQPLQNLSVLKQVGQENQMQWAQKVITSGFNALEKILQSTAGKYCVGDEVSMADVCLVPQVANAERFKVDLSPYPTISHINKELLALEVFQVSHPRRQPDTPAELRT	soluble
MGSDKIHHHHHHMEYINEVTINEAIIHVLDNSSEGVVFNEVELELNEETYEYILKHIQKCLKDEELKYAVFNVERNLAKELSQEYLDGKSDIVSVSKELASQLFVIMKSNGNIPSCDLLTAAITTEYGRMLVVLKMDYVKNYTHNIDVVDDKVEINIIPQFIGLPSSGQKIQKCAFIKPIREENNFDLMVIDKNSGKKDEDEYGSNYFINNYLGCKIINNERDLTKTFVKSAEKWTQKNLKDNADAAELVRTSIKKRLKEDDSININEVSDEIFGENKEAKDNFVEFIKKQGIEEKIELDKQWVENKMKRTRLKIDKDIDLYINEETYNDSSRFEIKRNGDGTINMIIKQVRNYVEK	not soluble
MSEEIKQEVKEEAPETTTEAKTEEAAPVAEVVAEVVTNGDKPAENGKTEEPSKYAETENYKKLIGLKMKPALADVVCEIYESGLLGPEDLDDRAVDIINSVNLDQAKFIFTEIKNSELFGVATKSLYVTSLIRSFKDRCRQQGAAAVTSGKLINGPELAALKNLLETTGYTIEVTIGQRKFGGPPPDWEGPATGPAGQGHEIYVGHIPTDVFEDTLVPLFEKSGKIWDLRLMMDPMSGASRGYAFVTYCNKEDAAAAAKTYDGHEISTGKPLKVNVSIANTRLFIGNIPKTKSKDEILEELKTHAEGVVDVIVYSVPDNEKIKNRGFCFVDFIDHKTASDIKRKIAQHKIRPFNADVYVDWAEHQEEPDEDTMSKVKVLYIRNIKEAVTEEKLNELFKEYASLDRVKKVKDYAFIHFNERDDCLKAMEEWNGKELEGTVVEASLAKPPQEKKKKPVMRGRGFGGAGGGAGNHGQRGGQRGGGQWGGNAGPGGYYPNHFNNGYDMPMPWGGGYGGDMGYGAYGGGYGGGYGGPGAYGDFGAYGGGGFRGGMRGSPRGGMGGGGGFRGGPPGRGGMANRRGRGKRPGDGRGGPASKRDNGKPDFSADVNMSTF	not soluble
MFLTRSEYDRGVSTFSPEGRLFQVEYSLEAIKLGSTAIGIATKEGVVLGVEKRATSPLLESDSIEKIVEIDRHIGCAMSGLTADARSMIEHARTAAVTHNLYYDEDINVESLTQSVCDLALRFGEGASGEERLMSRPFGVALLIAGHDADDGYQLFHAEPSGTFYRYNAKAIGSGSEGAQAELLNEWHSSLTLKEAELLVLKILKQVMEEKLDENNAQLSCITKQDGFKIYDNEKTAELIKELKEKEAAESPEEADVEMS	soluble
MSECLMFGMDCEARCMTSMTADEENICFLVGTNNIKNDKNQVNKLFMDPEASRLMSKTFRHPAGEVRAIAAHPTKSTILATCTADFSSLGGTHSITIWNIEEDKRTLETVSRLPTEQVMSCLEWEPNSMKCAAMTPFRPEIQLLNMENGPEIVQNLKIPLENEEDEMFSATWSPHHDGNMLGVTGGRTAWCIDCRTDNEYLKIRDAHIHRTISMDFNPNLQHVIATCGDDGYVRIWDTRSTSSALTSLHPHAHWVWSVRFHPVHDQLLLTGGSDASVVLSCAQSVSSEQQIEFRDDEEEEEDDDLVEKLQDGQLERIDEHEDSVYACAWSSADPWTFASLSYDGRMIVSNVSRKHKYALMQL	not soluble
MYSIEVRTHSALHVVKGAVVKVLGSEAKWTYSTYVKGNKGVLIVKFDRKPSDEEIREIERLANEKVKENAPIKIYELPREEAEKMFGEDMYDLFPVPEDVRILKVVVIEDWNVNACNKEHTKTTGEIGPIKIRKVRFRKSKGLLEIHFELLELENPSLEHHHHHH	soluble
MAHHHHHHMPLNAQQLLFHLARRNSAPPWRWFPTATENKLFERLDTSGSPTAQVVYSQFVQARLQGSCSAGTAPIQLDLFLDELTPSDDGDYILRCPLANSHLMKRLVVPAPMRIAMHGLLQEVIDVFQQAGIRYWAAGGTLLGAVRHGCIIPWDDDVDLAISVEDELKLRSAFKYPCAHGSDDNIGDNSGDCNSEYSSESSSNEVEKNDGNNGGNLVLEYVPLFGYKVYSRLLPPPFPSPSLPGVGSSCLRYGYFVDIFIMRESKNRFVLARESAQRTWPDEWWHVDELFPLLQKPFAAVAACASEQHPQTALQLSVGRYPLMHLHRLYGETCMQEALIPRELHGRELSHSLRIPLELL	not soluble
MGSDKIHHHHHHMHSKTFGDVSIDEMVSRIKEFILKDNNCNYKITIGTDSQNKNLTKVVVVVAIHRIGSGGIFFYDIKHVHKISNVRQKIYYETALSLELASKVSHAFAEANIQEDIEIHADIGSNRKGKTYPLINEITGWITGEGYKYQIKPYSYAASCIADKISK	not soluble
MLPNNQWQIPINNGLTHQENMAAHAAVMKLRVHDLQSIISQLSLRKPRPQKSEHQKVVVESLRDPHHARQIYQMVISLIFSSLQASNFPNGNYEMQKRPATTSQVRSHPYVLPSRSGASNHLVNHHYQQQQQQQPQPHNLLHQQMMASHHSHLQQQHHPSTPKKMYADNFEPLPLPFYDVISVLLKPVELHSSDSPTLKQTKQLQFPFLLTAEHISKISYRADVTPLPRYELQLRFFNLTEPVQGPQKDDFPLNCYARVDDSVVQLPNVIPTNKTNAEPKRPSRPVNITSNMNRYKKEHTVAVEWLADKRVWAAGVYFVHRVNSDILFKRLNQNVSRHRSLEVTKQEVIKKLSGGEDDIAMDRLNISLLDPLCKTRMTTPSRCQDCTHLQCFDLLSYLMMNEKKPTWQCPVCSSNCPYDRLIVDDYFLDMLAKVDKNTTEVELKEDGSYDVIKEEAFCISDDDDDDVVPATVNGTASCSSTNGNGLANEAAKKKPADDDIITLSDDDDEELNRGIMNSLNDSFSPGRHTASAELAAQKTPPQQKKKTKDDDIEIITLDDTPPRPVAASANLPMRQMSQQNQMPVGSSPSGMASTQMGMNEGASKTIRDALNKIGEPMINQAPHFQMQNGLIGRNNQMVHMQQHHLQQQQQQQQSPQIMSPSFYAQQQMSNGGAFAYYPPQYPQQQYRQN	not soluble
MDAKHIEKVFVKKVPAKSNKAQVKYPFDENSVNVLIIGLDKASNRSTYDLHRTDTILFLNINFKDKKVKGISIPRDTLTEIYKVGKWDKINSAFGYGGGEKEEGFFYTMETVSKLLGGMPIEYYVGFDLDAVRKVVNILGGVYVNVEVPVKVKTKWVNIDLKPGYQKLNGIETLYYALWRKTPGGDIDRIKRDKELILSVFEQLKESNKIITLPEIYWKIRRHFYTNLSLQQITSLAYFAQNMKKEDIVFESIPGDYFNYMGVSYWKPDYEGIKKLVKDLFGYDIEIDLKMPEKYKYARRIIVKAKKENNISYSHTNKSYSTESSQNQNSQSNSEVNLVQKQTETIENSTQSSSPFDAQWRNSSEDTQTLPPENDSQTTQGTQQQQATTESEIQVDTPSTSSDVVSNVYGGRLEHHHHHH	soluble
MEIGDLNEVNELVSRLNNENVKIAEVNDYIQTLSAGIEEMNVQAQQLSDFAVESSSMAEKGKEISDNVALKVSKISETSREMSNAISILAEYSKKIDEIVYVISSIASQTNLLALNASIEAARAGEAGRGFAVVAENVRELADRSKKAAEQIRDLIKEMQENTNRVIEAIQENVKVTEEVKEAIQELIAAFDDIARRANETATMVKELSEGIDEQANSVQMLVERIDSISKDVSDNLNFATQLTETVKGSIEKLEVIKNKVSQLKDELDKTLEKLEV	soluble
MNKKIFVIGSGLSGLVASTELLKKGYHVTMLDQEPRQAIGGQAYWSFGGLFLVNSKIQQRLGVKDSYELALNDWLGSAQFDRPDDEDYWAKQWAEAYVRFATFEKENYLKEMGVRLTPILGWAERGGASASGHGNSVPRFHITWGTGPGLVEPFSRFVLEKEQEGQFKFLPRHQVTDIGIEHNQVTHISGIILEPSDVERGEKSSRTVIDTFHYEVDELLITSGGIGANMPLIRKYWPKRLGNPPKTMIQGVPDSTDGHLIQVTEDAGANIVNKDRMWHYTEGIQNHSPIWSNHGIRIIPGPSSMWFDATGKRMAAPDYPGFDTLHTLETIMKTGYDYSWFILTEDIIKKEFVLSGSEQNPDLTDKDIKLLLQERLGSKATSPVEAFMDKGPDFILADDLGMLVRKMNDLAGNDLLNYETIKHEIKARDLQIDNPFTKDPQVAFINNARQFLGNKLVRTAKPHKILSGRNGRLIAVKLNIISRKTLGGIQTNLDGQALNPSMQPIQGLYAAGEASGFGGGGVHGYRALEGTFLGGCIFSGIRAAEGIHHHIQLEHHHHHH	soluble
MTTKNKRVLQKCAYREEFKGDMERSTAATSKLPLEVELSRNSKGLIIILSSPSGTGKSSLAKALLKIDNNLRLSISATTRKPRLGEVEGINYYFKTGLEFEELVKQNKFLEYAKIYDNYYGTPKEYVEMLLNQGLDVLFDIDWQGARSIKKNATNVVTIFVLPPNIEVLEQRLRNRATDNEEAIKLRMQLAQNEISHANEYDYVVTNDDFDRTLKKIHAIIVAARDKAF	soluble
MSDIERRHTIMAKGSVRKKGKKWYYRFYVEDASGNLVQKEYAGTESKSETEKLLRQAMDDYESKKFIAKSENITIGELLDIWAEEELKTGMLSNGTVQNYLGAITNIKKHPISERKLKNVTSEHLQAFFDLLSFGGTYPDGSERKGYSKDYIRSFSAVLQQSFRFAVSPKQYITFNPMQYIKLKYQTDEVDLFSDDDMDGDIQPIPREDYERLIEFLQNYNPPAILPIQIAYYAGLRIGEACGLAWQDVNLEEQCLTIRRSIRYDGSRHKNIIGPTKRKKVRIVDFGDTLAEILRNARKEQLKNRMQYGELYHKNYYREVKDKNRVYYEFYHLDGTENVPEDYKEISFVCLRPDGSLELPSTLGIVCRKIAQKLDGFEGFHFHQLRHTYTSNLLANGAAPKDVQELLGHSDVSTTMNVYAHSTRKAKRESARLLDKVAGND	not soluble
MSLARIKDVAELAGVNRSTVSRIINGEGKFREETRKKVEQAMAQLNYRPSAIARSLATSSSNMVGLLVTYYTGGFFGEMMEQVQTELDIHKKFLITAQGHHSAEGEKEAIQRFNDLRCDGYVLHSRYLSDDDLRELAKLPTPFVLLDRYVEGIEERCITFNHHHASRIAVEHLIAGGHKNIACITGPSLRHNSLLRKLGYVDAMKTAGIDIDESWCEEGNYGRQSGYDAMASILKRHPEVTAVFSCSEEMTVGAMQYLHEHKISVPEQISLTSFDSVDLCESLYPTVSAVHFPISDMARAAVQTLMGLVKKQEHIEKPVFEAKLKLRHADREGHHHHHH	soluble
MRVHKVKFLNQHELTKLLALLDLDHGLDWDYFLLLIAKTGLRFGEALGVTPMDFDMAKLTLTINKTWDYKSATGSFAETKNTASVRKVPLDWQVAMQFAAQIKSLPQDKPIFVTDGQRVYNETANDILERKCKRASIPVISIHGLRHTHASLLLYAGVSVGSVARRLGHANMSTTQKTYLHILEHHHHHH	not soluble
HKEDKEDFAELSGIAVPAEITAEDGTMFKEALLFTHRGLSGPSVLQISSFWKAGQKVSINLVPNEDIALLLERSLEKHPNQSLKNTLAKVLPKRLVEVLIERKELMDKPLKQFNPKELASVVERLENWSIAPNGTEGYRTAEVTLGGVDTDHLSSKTMECKNIKGLYFIGEVMDVTGWLGGYNFQWCWSSGFVAGQWV	not soluble
